From US20220324909A1 (COHBAR, published 2022)
Non-standard residues stand in square brackets, D forms with d. Primed or numbered codes have the meaning given here. No end group written: not given here. PEG12″ = PEG12 group on the N-terminal Lys

T1: Apelin Receptor (APJ) stably overexpressed in CHO-K1 AGTRL1 Gi cells (human, UniProt P35414 1-380)
T1 sequence (looked up): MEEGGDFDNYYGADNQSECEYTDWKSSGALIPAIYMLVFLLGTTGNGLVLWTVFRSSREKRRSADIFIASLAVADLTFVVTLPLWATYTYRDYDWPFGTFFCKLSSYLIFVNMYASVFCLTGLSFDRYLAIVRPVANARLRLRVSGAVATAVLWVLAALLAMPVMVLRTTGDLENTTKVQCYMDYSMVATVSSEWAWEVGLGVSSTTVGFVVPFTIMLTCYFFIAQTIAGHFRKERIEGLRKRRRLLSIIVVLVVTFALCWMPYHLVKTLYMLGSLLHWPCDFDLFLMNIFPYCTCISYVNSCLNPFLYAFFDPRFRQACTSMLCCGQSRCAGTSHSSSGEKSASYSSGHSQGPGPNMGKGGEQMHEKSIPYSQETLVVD


molecular target: ProLink tagged human APJ (Apelin Receptor) in CHO-K1 AGTRL1 β-Arrestin cells (human, UniProt P35414 1-380); assay: cell-based or functional assay

Row | Binder | β-Arrestin recruitment, Percent of Apelin-13 Control Activity (10 µM peptide)
1 | RRMMGMVFQSLCG[dA] [SEQ ID NO 15] | 40 % of Apelin-13 control
2 | RRLLGLVEQSLCG[dA] [SEQ ID NO 40] | 0 % of Apelin-13 control
3 | RRMMGMVEQCLCG[dA] (cysteine pairing not given here) [SEQ ID NO 12] | -1 % of Apelin-13 control
4 | RRLLGLVFQSLEG[dA] [SEQ ID NO 41] | 0 % of Apelin-13 control
5 | RRMMGMVFQELCG[dA] [SEQ ID NO 13] | 1 % of Apelin-13 control
6 | RRMMGMVFQCLEG[dA] [SEQ ID NO 14] | 0 % of Apelin-13 control
7 | MRRMMGMVFQCLCGL [SEQ ID NO 7] | 91 % of Apelin-13 control
8 | KRRLLGLVFQSLCGA ((PEG12) on the N-terminal K (position 1); (dA) D-alanine at position 15) [SEQ ID NO 37] | 12 % of Apelin-13 control
9 | MMGMVFQ [SEQ ID NO 46] | 0 % of Apelin-13 control
10 | MMGMVF [SEQ ID NO 45] | 0 % of Apelin-13 control
11 | MMGMV [SEQ ID NO 44] | 0 % of Apelin-13 control
12 | MMGMVFQS [SEQ ID NO 47] | 1 % of Apelin-13 control
13 | KRRMMGMVFQSLCGA ((PEG12) on the N-terminal K (position 1); (dA) D-alanine at position 15) [SEQ ID NO 36] | 63 % of Apelin-13 control
14 | MMGMVFQSLCG[dA] [SEQ ID NO 49] | 1 % of Apelin-13 control
15 | [PEG12″]KRRIIGIVFQCLCG[dA] (cysteine pairing not given here) [SEQ ID NO 42] | 8 % of Apelin-13 control
16 | MMGMVFQSL [SEQ ID NO 48] | 1 % of Apelin-13 control
17 | RRMMGMVYQCLCG[dA] (cysteine pairing not given here) [SEQ ID NO 10] | 3 % of Apelin-13 control
18 | RRMMGMVAQCLCG[dA] (cysteine pairing not given here) [SEQ ID NO 11] | 0 % of Apelin-13 control

molecular target: T1, Apelin Receptor (APJ) stably …; assay: cell-based or functional assay

Row | Binder | IC50, inhibition of forskolin-stimulated cAMP accumulation [nM]
19 | RRMMGMVFQSLCG[dA] [SEQ ID NO 15] | 4490
20 | RRIIGIVFQSLCG[dA] [SEQ ID NO 43] | 2070
21 | MRRMMGMVFQCLCGL [SEQ ID NO 7] | 1240
22 | KRRLLGLVFQSLCGA ((PEG12) on the N-terminal K (position 1); (dA) D-alanine at position 15) [SEQ ID NO 37] | 2500
23 | KRRMMGMVFQSLCGA ((PEG12) on the N-terminal K (position 1); (dA) D-alanine at position 15) [SEQ ID NO 36] | 1600
24 | [PEG12″]KRRIIGIVFQCLCG[dA] (cysteine pairing not given here) [SEQ ID NO 42] | 4380

molecular target: T1, Apelin Receptor (APJ) stably …; assay: cell-based or functional assay; remark: another data set of the same source

Row | Binder | cAMP levels, Percent of Pyr-Apelin-13 Control Activity (10 µM peptide, 10 µM forskolin)
25 | RRMMGMVFQSLCG[dA] [SEQ ID NO 15] | 105 % of Pyr-Apelin-13 control
26 | RRLLGLVEQSLCG[dA] [SEQ ID NO 40] | 19 % of Pyr-Apelin-13 control
27 | RRMMGMVEQCLCG[dA] (cysteine pairing not given here) [SEQ ID NO 12] | 24 % of Pyr-Apelin-13 control
28 | RRLLGLVFQSLEG[dA] [SEQ ID NO 41] | 15 % of Pyr-Apelin-13 control
29 | RRMMGMVFQELCG[dA] [SEQ ID NO 13] | 49 % of Pyr-Apelin-13 control
30 | RRMMGMVFQCLEG[dA] [SEQ ID NO 14] | 39 % of Pyr-Apelin-13 control
31 | MRRMMGMVFQCLCGL [SEQ ID NO 7] | 109 % of Pyr-Apelin-13 control
32 | KRRLLGLVFQSLCGA ((PEG12) on the N-terminal K (position 1); (dA) D-alanine at position 15) [SEQ ID NO 37] | 53 % of Pyr-Apelin-13 control
33 | MMGMVFQ [SEQ ID NO 46] | 11 % of Pyr-Apelin-13 control
34 | MMGMVF [SEQ ID NO 45] | 10 % of Pyr-Apelin-13 control
35 | MMGMV [SEQ ID NO 44] | 5 % of Pyr-Apelin-13 control
36 | MMGMVFQS [SEQ ID NO 47] | -6 % of Pyr-Apelin-13 control
37 | KRRMMGMVFQSLCGA ((PEG12) on the N-terminal K (position 1); (dA) D-alanine at position 15) [SEQ ID NO 36] | 101 % of Pyr-Apelin-13 control
38 | MMGMVFQSLCG[dA] [SEQ ID NO 49] | 14 % of Pyr-Apelin-13 control
39 | [PEG12″]KRRIIGIVFQCLCG[dA] (cysteine pairing not given here) [SEQ ID NO 42] | 33 % of Pyr-Apelin-13 control
40 | MMGMVFQSL [SEQ ID NO 48] | 15 % of Pyr-Apelin-13 control
41 | RRMMGMVYQCLCG[dA] (cysteine pairing not given here) [SEQ ID NO 10] | 70 % of Pyr-Apelin-13 control
42 | RRMMGMVAQCLCG[dA] (cysteine pairing not given here) [SEQ ID NO 11] | 49 % of Pyr-Apelin-13 control
